Patent publication US20230129812A1, “COMPOSITIONS AND METHODS FOR TREATING PULMONARY HYPERTENSION” (Acceleron Pharma Inc., priority 2020, published 2023)

What was measured:
activin A = biological target: T1, activin A (Homo sapiens, UniProt P08476); assay: Biacore ligand binding profile, ActRIIA-Fc:ALK4-Fc heterodimer vs homodimers, anti-Fc capture (Example 17, Table 14); conditions: for ka / kd: ligand Activin A, Table 14
T1 sequence (P08476 311-426): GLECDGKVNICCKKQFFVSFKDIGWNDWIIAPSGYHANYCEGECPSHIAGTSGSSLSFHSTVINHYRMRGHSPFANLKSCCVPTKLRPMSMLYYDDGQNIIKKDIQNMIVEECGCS
Experimental: (§1) A Biacore™-based binding assay was used to compare ligand binding selectivity of the ActRIIA-Fc:ALK4-Fc heterodimeric complex described above with that of ActRIIA-Fc and ALK4-Fc homodimeric complexes. The ActRIIA-Fc:ALK4-Fc heterodimer, ActRIIA-Fc homodimer, and ALK4-Fc homodimer were independently captured onto the system using an anti-Fc antibody. Ligands were injected and allowed to flow over the captured receptor protein. Results are summarized in Table 14 below, in which ligand off-rates (kd) most indicative of effective ligand traps are denoted in bold.

BMP9 = biological target: T2, BMP9 (Homo sapiens, UniProt Q9UK05); assay: as above; conditions: ligand BMP9, Table 14
T2 sequence (Q9UK05 320-429): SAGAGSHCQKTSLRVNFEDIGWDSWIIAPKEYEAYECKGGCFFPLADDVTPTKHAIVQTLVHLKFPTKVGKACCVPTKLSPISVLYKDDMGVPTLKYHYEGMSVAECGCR
Experimental: as §1

GDF3 = biological target: T3, GDF3 (Homo sapiens, UniProt Q9NR23); assay: as above; conditions: ligand GDF3, Table 14
T3 sequence (Q9NR23 251-364): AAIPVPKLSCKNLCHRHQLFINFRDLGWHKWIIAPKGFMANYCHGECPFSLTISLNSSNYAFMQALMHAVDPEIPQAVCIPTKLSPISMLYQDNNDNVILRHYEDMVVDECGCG
Experimental: as §1

activin AC = biological target: T4, activin AC (Homo sapiens, UniProt P08476+P55103); assay: as above; conditions: for ka / kd: ligand Activin AC, Table 14
T4 sequence (P08476 311-426): T1 sequence (P08476 311-426)
T4 sequence (P55103 237-352): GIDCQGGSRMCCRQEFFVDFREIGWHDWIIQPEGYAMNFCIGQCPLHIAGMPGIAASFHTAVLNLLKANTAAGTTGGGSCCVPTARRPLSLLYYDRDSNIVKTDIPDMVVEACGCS
Experimental: as §1

BMP7 = biological target: T5, BMP7 (Homo sapiens, UniProt P18075); assay: as above; conditions: ligand BMP7, Table 14
T5 sequence (P18075 293-431): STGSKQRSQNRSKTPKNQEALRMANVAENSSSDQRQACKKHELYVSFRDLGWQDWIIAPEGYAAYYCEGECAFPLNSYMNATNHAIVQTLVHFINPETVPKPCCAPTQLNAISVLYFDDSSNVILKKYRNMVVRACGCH
Experimental: as §1

BMP6 [1] = biological target: T6, BMP6 (Homo sapiens, UniProt P22004); assay: as above; conditions: ligand BMP6, Table 14
T6 sequence (P22004 375-513): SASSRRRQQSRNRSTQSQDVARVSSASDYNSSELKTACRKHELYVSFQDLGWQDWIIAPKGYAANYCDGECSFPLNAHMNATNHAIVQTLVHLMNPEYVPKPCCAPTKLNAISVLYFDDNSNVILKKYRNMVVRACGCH
Experimental: as §1

GDF11 = biological target: T7, GDF11 (Homo sapiens, UniProt O95390); assay: as above; conditions: for ka / kd: ligand GDF11, Table 14
T7 sequence (O95390 299-407): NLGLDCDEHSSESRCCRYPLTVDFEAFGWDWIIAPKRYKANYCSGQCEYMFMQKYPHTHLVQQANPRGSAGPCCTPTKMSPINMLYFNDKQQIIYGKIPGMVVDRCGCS
Experimental: as §1

BMP10 [2] = biological target: T8, BMP10 (Homo sapiens, UniProt O95393); assay: as above
T8 sequence (O95393 317-424): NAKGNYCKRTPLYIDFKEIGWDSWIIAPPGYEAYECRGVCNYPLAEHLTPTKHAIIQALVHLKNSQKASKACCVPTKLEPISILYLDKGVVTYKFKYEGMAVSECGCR
Experimental: as §1

activin B [3] = biological target: T9, activin B (Homo sapiens, UniProt P09529); assay: as above; conditions: for activin B binding: Example 17; for ka / kd: ligand Activin B, Table 14
T9 sequence (P09529 293-407): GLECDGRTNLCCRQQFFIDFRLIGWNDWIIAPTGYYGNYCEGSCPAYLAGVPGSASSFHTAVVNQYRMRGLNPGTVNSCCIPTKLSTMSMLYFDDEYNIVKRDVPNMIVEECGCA
Experimental: as §1

GDF8 [4] = biological target: T10, GDF8 (Homo sapiens, UniProt O14793); assay: as above; conditions: ligand GDF8, Table 14
T10 sequence (O14793 267-375): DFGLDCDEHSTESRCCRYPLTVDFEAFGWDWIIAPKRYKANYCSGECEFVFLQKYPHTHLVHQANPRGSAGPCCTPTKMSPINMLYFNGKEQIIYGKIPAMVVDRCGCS
Experimental: as §1

activin AB = biological target: T11, activin AB (Homo sapiens, UniProt P08476+P09529); assay: as above; conditions: for ka / kd: ligand Activin AB, Table 14
T11 sequence (P08476 311-426): T1 sequence (P08476 311-426)
T11 sequence (P09529 293-407): T9 sequence (P09529 293-407)
Experimental: as §1

activin B [5] = biological target: T9, activin B; assay: Similar Biacore binding assay (Example 1)
BMP10 [6] = biological target: T8, BMP10; assay: Similar Biacore binding assay (Example 1)
[7] = Pharmacokinetics in cynomolgus monkeys; assay type: in vivo
[8] = Pharmacokinetic studies in rats; assay type: in vivo
Experimental: The ActRIIA-hFc was very stable in pharmacokinetic studies. Rats were dosed with 1 mg/kg, 3 mg/kg, or 10 mg/kg of ActRIIA-hFc protein, and plasma levels of the protein were measured at 24, 48, 72, 144 and 168 hours. In a separate study, rats were dosed at 1 mg/kg, 10 mg/kg, or 30 mg/kg.

BMP6 [9] = biological target: T6, BMP6; assay: Similar Biacore binding assay (Example 1)
GDF8 [10] = biological target: T10, GDF8; assay: Similar Biacore binding assay (Example 1)
[11] = initial administration of 1 mg/kg
[12] = initial administration of 10 mg/kg

Row | ka (activin A) | kd (activin A) | ka (GDF3) | kd (GDF3) | ka (activin AC) | kd (activin AC) | ka (BMP7) | kd (BMP7) | ka (BMP6 [1]) | kd (BMP6 [1]) | ka (GDF11) | kd (GDF11) | kd (BMP10 [2]; ligand BMP10, Table 14) | ka (activin B [3]) | kd (activin B [3]) | ka (GDF8 [4]) | kd (GDF8 [4]) | ka (activin AB) | kd (activin AB) | Substance | activin B binding (activin B [3]) | further results
1 | 1.4e+07 M⁻¹ s⁻¹ | 0.00062 s⁻¹ | 1.5e+06 M⁻¹ s⁻¹ | 0.0036 s⁻¹ | 2.2e+07 M⁻¹ s⁻¹ | 0.0079 s⁻¹ | 8.9e+06 M⁻¹ s⁻¹ | 0.033 s⁻¹ | 2.7e+08 M⁻¹ s⁻¹ | 0.022 s⁻¹ | 7.3e+07 M⁻¹ s⁻¹ | 0.00092 s⁻¹ | 0.0025 s⁻¹ | 1.1e+07 M⁻¹ s⁻¹ | 0.00011 s⁻¹ | 1.4e+06 M⁻¹ s⁻¹ | 0.0014 s⁻¹ | 2.8e+07 M⁻¹ s⁻¹ | 0.00026 s⁻¹ | ActRIIA-Fc homodimer: ActRIIA-Fc homodimeric complex used as comparator in Example 17 | highest affinity | kd (BMP9): Transient*; ka (BMP10 [2]; ligand BMP10, Table 14): 2.9e+07 M⁻¹ s⁻¹
2 | – | – | – | – | – | – | – | – | – | – | – | – | – | – | – | – | – | – | – | ActRIIA-hFc: extracellular domain of human ActRIIa fused to a human Fc domain with a minimal linker; homodimer | – | affinity for activin B (activin B [5]): high to moderate affinity; affinity for BMP10 (BMP10 [6]): high to moderate affinity; plasma half-life [7]: greater than 14 days; circulating levels of the drug [7, 11]: 25 µg/mL; circulating levels of the drug [7, 12]: 304 µg/mL; circulating levels of the drug ([7]; initial administration of 30 mg/kg): 1440 µg/mL; serum half-life [8]: 11 to 14 days; circulating levels of the drug after two weeks [8, 11]: 11 µg/mL; circulating levels of the drug after two weeks [8, 12]: 110 µg/mL; affinity for BMP6 (BMP6 [9]): high to moderate affinity; affinity for GDF8 (GDF8 [10]): high to moderate affinity
3 | 7.4e+06 M⁻¹ s⁻¹ | 0.00024 s⁻¹ | 4.9e+07 M⁻¹ s⁻¹ | 0.0048 s⁻¹ | 3.2e+06 M⁻¹ s⁻¹ | 0.00054 s⁻¹ | 2e+07 M⁻¹ s⁻¹ | 0.072 s⁻¹ | 5.4e+06 M⁻¹ s⁻¹ | 0.012 s⁻¹ | 3e+07 M⁻¹ s⁻¹ | 0.00065 s⁻¹ | Transient* | 9.5e+06 M⁻¹ s⁻¹ | 0.00048 s⁻¹ | 1.8e+07 M⁻¹ s⁻¹ | 0.0028 s⁻¹ | 1.8e+07 M⁻¹ s⁻¹ | 0.00023 s⁻¹ | ActRIIA-Fc:ALK4-Fc heterodimer: soluble heteromeric complex of extracellular domains of human ActRIIA and human ALK4, each separately fused to an Fc domain with a linker | reduced affinity (albeit still within the high-affinity range) | activin A binding (activin A; Example 17): enhanced binding; KD (BMP9): No binding; activin AC binding (activin AC; Example 17): particularly enhanced binding; GDF11 binding (GDF11; Example 17): strong binding; BMP10 binding (BMP10 [2]; Example 17): markedly reduced binding; activin AB binding (activin AB; Example 17): strong binding
